Source: the supplement of paper PMC9170038

System: K4 kissing-loop RNA reporter
Test: apparent KD of K4 kissing-loop reporter; higher = weaker reporter binding
Settings: Eterna round: R107; input ligand: none
Protocol: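 RNA-MaP round R107: designed RNA switches with theophylline, tryptophan, arginine or FMN aptamers are transcribed on-chip within common flanks. They are titrated with a labelled K4 kissing-loop RNA reporter in RNA-MaP buffer (100 mM Tris pH 7.5, 80 mM KCl, 4 mM MgCl2), without ligand or with the indicated ligand. Median apparent KD per design.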
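Further: bound reporter read as fluorescence of individual clusters on recovered sequencing chips by microscopy, with normalized cluster intensities fitted with a binding model.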

Sequence	apparent KD of K4 kissing-loop reporter [nM]
AGGAUCCGUCGACAAAAGUCGACAUAAACCGAGGAUAUGACGAAAGUCAGAAGGUGGUCAUAAGACCAGUGAUGUUGGUGGAUCC [FmnA 14 #SwitchBubble #K4Late]	494
AGGAUAUAGUGAUGUUAUAUAAGAAGAAAACGAGGACCGGUACGGCCGCCACUCGAAGCGGCUACUAAGAGGGAAAGAAGAGGAA [ExTryptoA.A]	215
AAAGAGUCCUGAGCCGAAGAAGAAGGCGGACGAGGACCGGUACGGCCGCCACUCGAAAGGAGUGCGGCUGAGUGAUGUUUGGCCG [Tryptophan A (C-G optomized)]	284
AGUGGACGUUACCGGAGUGAUGUUUCGGAUACCAGACACGAAAGUGUCCCUUGGCAGCCGUAGUGAUGUUACGGAGUUCACUAAA [KL-XTheo-A12 #KL 2]	103
AAAUCGUUCAGAAGGAGCGUGAAUUAUUCUUAAUUAUAUUAUACGAGUGAUGUUCGUGUUUCACAGGUAGGUCGCUGAUCGAUAA [JR_SSArginiB_Sub005]	95.6
UGUCAUUGGUCUGAUACCAGUUAGCGCGAUAAGCGCAAAACUGGAGUGAUGUUCCCAAAUAACCCUUGGCAGCAGACCGAUGACU [MAT - Same State Theophlline B - Mod of Eli - D13]	235
UGUGAACAAAAGUAGAGUGGACCACUAUAGCGAGGACCGGUACGGCCGCCACUCGUACAUGAAUUCAGUGAUGUUGAAAAGAGCU [whbob_EX_Tryp_A_t13]	307
GGAUCUUCCAGUGAUGUUGGUUAAUAUAUCAAGGAUAUGACGAAAGUCAGAAGGUGAAAGACUGGACAAAGUCCAGUCGGAUCCA [KL-SSFMN-A19]	599
UUUGGUUUCUCGGCCGCCACUCGUUGUCUAUCGGCUUCAGGGAUAUAGUGAUGUUAUGUAUAGAAGAGGACCGGGAGAAGGUUCC [ExTryptoB.Dy]	303
UAAUAUCCGUCGGCCGCCACUCACUAGUGAUGUUAGAGGAGUGAUGUUCCACGAGUGAUGUUCGAGAGGACCGGGACGGACGAUG [7th]	65.3
AAGUAGAUCAAGAUCUAGUAUCUAGAUCAACGAGGACCGGUACGGCCGCCACUCGAAUAAUAGAGUGAUGUUCUAAGAUCUACAA [AK1.4 SS Tryptophan A]	994
GCGCGUCAUGUCAGCGGAGACACUGUCGAUACCAGCGCCGCAAGGCGCCCUUGGCAGCGACGCGCUGGAGUGAUGUUCCAGCGUG [#2 Exclusion - Theophylline A Attempt #15 (HarryS)]	148
AAUAAGGUCGCCGAUACCAGCGCAGGCAGAGCAAAGCUCUGCCUAGUAGUGAUGUUACUGCGCCCUUGGCAGCGGUGGCACGACC [Omei KL Theo B SS C v4]	930
AUUUAAUGUAUAGAUUAUAUACAUAAUUCAGAGGAUAUGCGAAGAAGCAGAAGGCUGGUUGCAGUGAUGUUGCUUUUAUAAUUUA [JR_SSFMNA_Sub009]	85.9
AGGCACGAGCAAGGAUAUCGAGUAGAGUGAUGUUCUGCCUGGGUUGGCUCGGAAGGGCCUUCCCAGCGAGAAGGUGCUCGUGCCU [#2 Same State - FMN A Attempt #16 (HarryS)]	590
ACUGAGCAUGCGGCCGCCACUUCAGAACGUCGCCCAAAGGGCGACGCCUCCAGAGUGAUGUUCUGGAGGACCGGGCAUGUUCAGA [Omei KL Tryp B Exc A v1]	506
AAUGGCGAGUGAUGUUCGCCCACCAAUGAUACCAGUGCCAUCGGACACCCUUGGCAGCAUACGGGCAGUGAUGUUGCUCUUGGAA [Exclusion Theophylline A GF 26]	193
CCUUGGAUUAGCUGUACUUUUCUACGGGAUACCAGUGCGUAACACCACCCUUGGCAGCCCGAUUACCGGCAGUGAUGUUGCCUCU [theeternabot_sameState_KL_Theo_A_41]	244
UCCUGCAAUCGACCACGAAAGUGGAUCGAUACCAGAGUCGAAAGACUCCCUUGGCAGCGAGUGAUGUUCGAGCAGGUAAAAUAAA [#SwitchBubble 23 #K4Late]	446
AAGCAGUCACUCGAAAUCAUCAAAGAUGAACGAGGACCGGUACGGCCGCCACUCGGAGUGAUGUUCCGAAGACUGCAAAAUAAAA [MatMod 2 - Jieux - Exclusion - Tryptophan A]	243
AGAAGAGUGAUGUUCUUCUAUAUCUCAGAAGGAGCGACAUAAAUGUCAGGUAGGUCGCUGAGAUGAAAUCUCACACAGAUCUUGG [Arg A SS t8]	154

Same assay, conditions: Eterna round: R107; input ligand: theophylline 20 uM

Sequence	apparent KD of K4 kissing-loop reporter [nM]
UGUCAUUGGUCGGCCGCCACUUCGUGUAGAGUGAUGUUUUGUAGGACGGAUCGAAAGAUCUGUCGGAGGACCGGGACCGAUGACU [FiskerMod 17 - Jieux - Same State - Tryptophan B]	481
UGUACCGAGUCAGGAUAUGGCGUCGAAAGACGAAUGCUAGUGAUGUUAGGGAUCUGCGAAAGCAGUCCAGAAGGGACUUGGUACU [FmnBS 26 G36]	634
AGGCACGAGCAAGGAUAUCGAGUAGAGUGAUGUUCUGCCUGGGUUGGCUCGUAAGAGCCUUCUCAGCGAGAAGGUGCUCGUGCCU [#2 Same State - FMN A Attempt #20 (HarryS)]	511
GCGCGGCAGGCGGCCGCCACUCUGACGAGCCACAGUGAUGUUGUGGUCGGAGAAACGUCUUCAUAGAGGACCGGGUUUGUUGUUC [Same State Typtophan A GF 25]	189
ACGAUUUACAGAAGGAGCGUGUAUUUAACUACAAUUAUCAUAGCGAGUGAUGUUCGUUAUACACAGGUAGGUCGCUGUAUAUCGA [JR_ExcArginiB_Sub012]	451
GUAUCGCUAGGAGGAUAUUUCAAUUUGACUCUUUGAGUUAUUACGGAGUGAUGUUCCGAUUUACGGAAAGAAGGCCUAGUGAUAC [FMN B 12]	172
AAUUCUUAUCUUAGUUGAUUUCUAAUUAAACGAGGACCGGUACGGCCGCCACUCGGUUAUGAGUGAUGUUCAUGGAAUUACAUAA [JR_SSTryptoA_Sub019]	791
UGGAUAUCGUUUAGUCUGGUGAGGUCAGAUACCAGACUAGCGAUAGUCCCUUGGCAGCUGAUUAUGAUUGAGUGAUGUUCAAUCG [Theo A Ex t9a]	180
AGACGAGAUGAAGGAUAUGCGGACAAAGUGAUGUUUUGUCCGAAAGUAGGCAGUAAUAUCGAAAAUGCAGAAGGUCAAGAACAUA [theeternabot_exclusion_KL_FMN_B_36]	256
GGAUAGGAUAGAGGAUAUGGUAUAUGCAAGAAUAACUUGUCAUGUAAAUCCAUGAGGAGUGAUGUUCCAGAAGGCUGUCCUAUCG [MatMod 10 - Jieux - Exclusion - FMN B]	519
UCCUACGAGGUAACGUGGAUAUCUCGUUGCAAGGAUAUCUGGAAACAGAGAAGGUGCAACAUUAUCGGCAGUGAUGUUGCUGACC	385
UCGCAAAAGUCGGCCGCCACUCCGGGCCCUAUAAAUGGGCGCAGUGAUGUUGCGGCUAGGCCUCUGAGGACCGGGACUUUGAAGA [Esesbior]	102
AAAAUAAACCAGUGAUGUUGGUGUCUAGAUACCAGCGACGAAAGUCGCCCUUGGCAGCUGUGGACGUACAAAAUAAGUACGUCCU [MatMod 5 - Jieux - Same State - Theophylline A]	480
UGAUACCAGACGGCCGCCACUCCCGCAGGUCAAAGACCUGCGAAGAAGGUUUUUUAGUGAUGUUGGAGGACCGGGUCUGGUAUCU [FiskerMod 20 - Jieux - Exclusion - Tryptophan B]	140
AGUAGUUGGGCGGCCGCCACUGGAACAGCUUUGUCAAAGACAGAGCACUAGAGUGAUGUUCUAGCUAGGACCGGGUCCAACUACA [whbob_SS_Tryp_B_t17]	503
AUACGCGAUAGCGUAUAUAACUUUUCAGAAGGAGCGUGGAAGUACACAGGUAGGUCGCUGAAUAUAGGACUAGUGAUGUUAGUUA [JR_Nu_SSArginiA_Sub025]	218

Sequence	apparent KD of K4 kissing-loop reporter [nM]
UGUGAUGUUGUGAUGUUUAGUGUUGUUGGGCAGGAUAUUGUAGAGGCGAGAAGGGCUUGUGUGAUGUAUGAGUGAUGUUUGUAGU [cffdmullin]	142
AGAGAUAUAUGAGGAUAUGAGAUAGUUAAUGAGUGAGUUAUAGUGUAGUUUGGUUAGUGAUGUUAUUUAGAAGGCGUGAGUGAUG [reefmullin]	107
AGGGAACGCACGGAUACCAGACUCAUAGUGAUGUUGUGGGUAUAAAUUAGCGCAUACACAGUCCCUUGGCAGCCGCUGAAUGGCC [theeternabot_exclusion_KL_Theo_B_1]	835
GGAUAGGAUAGAGGAUAUGGAAAACACAAAAGUGACUUGUUGUGUUUAUCCAUAGGGAGUGAUGUUCCAGAAGGCUGUCCUAUCG [MatMod 23 - Jieux - Exclusion - FMN B]	164
GUGAUAUCGCAAGGAUAUCCAAUUUCUGCGGAUAAGUGAUGUUUGGCGCCGCCUCAGUUAUGGCAAGGAGAAGGUGCGGCCUAGC [theeternabot_sameState_KL_FMN_B_28]	366
AGGAUCCGUCGACAAAAGUCGACAUAAACCGAGGAUAUGACGAAAGUCAGAAGGUGGUCAUAAGACCAGUGAUGUUGGUGGAUCC [FmnA 14 #SwitchBubble #K4Late]	318
AGGAUAUAGUGAUGUUAUAUAAGAAGAAAACGAGGACCGGUACGGCCGCCACUCGAAGCGGCUACUAAGAGGGAAAGAAGAGGAA [ExTryptoA.A]	294
AAAGAGUCCUGAGCCGAAGAAGAAGGCGGACGAGGACCGGUACGGCCGCCACUCGAAAGGAGUGCGGCUGAGUGAUGUUUGGCCG [Tryptophan A (C-G optomized)]	281
AGUGGACGUUACCGGAGUGAUGUUUCGGAUACCAGACACGAAAGUGUCCCUUGGCAGCCGUAGUGAUGUUACGGAGUUCACUAAA [KL-XTheo-A12 #KL 2]	88.7
AAAUCGUUCAGAAGGAGCGUGAAUUAUUCUUAAUUAUAUUAUACGAGUGAUGUUCGUGUUUCACAGGUAGGUCGCUGAUCGAUAA [JR_SSArginiB_Sub005]	148
UGUCAUUGGUCUGAUACCAGUUAGCGCGAUAAGCGCAAAACUGGAGUGAUGUUCCCAAAUAACCCUUGGCAGCAGACCGAUGACU [MAT - Same State Theophlline B - Mod of Eli - D13]	189
UGUGAACAAAAGUAGAGUGGACCACUAUAGCGAGGACCGGUACGGCCGCCACUCGUACAUGAAUUCAGUGAUGUUGAAAAGAGCU [whbob_EX_Tryp_A_t13]	400
GGAUCUUCCAGUGAUGUUGGUUAAUAUAUCAAGGAUAUGACGAAAGUCAGAAGGUGAAAGACUGGACAAAGUCCAGUCGGAUCCA [KL-SSFMN-A19]	444
UUUGGUUUCUCGGCCGCCACUCGUUGUCUAUCGGCUUCAGGGAUAUAGUGAUGUUAUGUAUAGAAGAGGACCGGGAGAAGGUUCC [ExTryptoB.Dy]	237
UAAUAUCCGUCGGCCGCCACUCACUAGUGAUGUUAGAGGAGUGAUGUUCCACGAGUGAUGUUCGAGAGGACCGGGACGGACGAUG [7th]	56.6
